Experimental findings from article PMC6513101, “Experimentally guided computational antibody affinity maturation with de novo docking, modelling and rational design” (PLoS Computational Biology, 2019) are described below.

The target of assay [1] is T1, biotinylated murine CCL20, O89093.
T1 chain: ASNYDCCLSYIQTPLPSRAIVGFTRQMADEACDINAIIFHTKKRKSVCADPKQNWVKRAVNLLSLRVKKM
In words: capture ELISA. The following applies: chain shown with the change; highest mAb concentration, log[nM] about 1.8; plate-coated anti-Fc antibody to capture the antibody variants; parent: est. 1.8; read off a plot. A general note: In an ELISA, binding on a coated surface is turned into a signal by an enzyme label.

The target of assay [2] is T2, biotinylated murine CCL20 (Mus musculus, UniProt O89093, biotin).
T2 construct: CCL20, mouse; recombinant; m2 with biotin; also called biotinylated muCCL20; muCCL20 antigen; source: in-house, standard mammalian cell expression; biotinylated
Kind of assay: ELISA; capture ELISA: plate-coated anti-mouse Fc antibody (1 ug/mL) captures the antibody variant (5 ug/mL); biotinylated muCCL20 titrated from 0 to 600 nM, 1 h. The conditions noted are these: both partners purified.

A further assay addresses murine CCL20 (mouse) (UniProt O89093).
For assay [3], the target named is T3, murine CCL20 (mouse, UniProt O89093 28-97).
T3 chain: T1 chain
Kind of assay: SPR. Background: In SPR one partner is held on a chip, and binding of the other changes the refractive index at the surface.

Assay [4] addresses T3, murine CCL20. Kind of assay: SPR.
Assay [5] addresses T4, murine CCL20 (Mus musculus, UniProt O89093).
T4 construct: CCL20, mouse; recombinant; also called muCCL20; mouse CCL20; source: in-house, standard mammalian cell expression; purified
Kind of assay: SPR; Biacore T200; muCCL20 immobilised on a CM4 chip (~30 RU); Fab 0.02-50 nM at 100 uL/min; HBS-EP pH 7.4; 1:1 model; apparent KD = koff/kon. The conditions noted are these: both partners purified.

The target of assay [6] is T4, murine CCL20. In words: ELISA; mouse or human CCL20 coated at 2 ug/mL on Maxisorp plates overnight at 4°C; antibody dilutions starting at 60 nM; detected with anti-Fc-HRP. The conditions noted are these: both partners purified.

Residue numbers refer to the chain shown, from its start. Numbers in names are those of the source.

B1: AB1 alanine variant 7 (H:S28A, H:N113A, L:K36A) (antibody, V domains shown)
VH: QVQLQQSGAELAKPGSSVKISCKAYGASFTTNSIHWIKQTTGQALEWTGYIAPGSGGARYNEKFKGKATLTVDKSSGTAYMQLSSLTPVDTAVYYCALNIGTAPFTYWGQGTLVTVSS
VL: DIVMTQGALPNPVPSGESVSITCRSSKSLLYSDGATYLNWYLQRPGQSPQLLIYWMSTRASGVSDRFSGSGSGTDFTLKISGVEAEDVGVYYCQQGLEFPRTFGSGTKLEIK
notes: IMGT numbering; IgG1, as m1; source: HEK293FT, transiently transfected, purified (Protein A)
As for B1, the response in assay [1] amounted to 0.86 A450. In addition, the binding result in assay [2] is reported as “binds”.

B2: AB1-C16 (L:G35Y) (antibody, V domains shown)
VH: B1 VH with A27S, A103N
VL: B1 VL with G34Y, A35K
notes: IMGT numbering; IgG1, as m1; also called clone 16; VL clone 16; source: HEK293FT, transiently transfected, purified (Protein A)
In the case of B2, in the assay with murine CCL20 (mouse), the fold decrease in antibody IC50 against parental AB1, CCR6 CHO-K1 β-arrestin assay with 4 nM muCCL20; blocks muCCL20 with muCCR6 turned out to be 2 fold. Besides, the binding result in assay [2] is reported as “binds”.

B3: AB1-C1-16 Fab fragment (H:S28R, L:G35Y) (Fab, V domains shown)
VH: B1 VH with A27R, A103N
VL: B1 VL with G34Y, A35K
notes: IMGT numbering; Fab of m48; also called combination clone AB1-C1-16; source: papain cleavage of the purified antibody; purified by anion and cation exchange chromatography
By koff is commonly meant a measure of how fast the partners let go of each other. Read a low koff as slow dissociation. Usually Kd stands for the free concentration of one partner at which half of the binding sites on the other are occupied at equilibrium, for simple one-to-one binding. A higher Kd goes with weaker binding. In the assay with murine CCL20 [3], B3 returned a koff of 0.0042 s⁻¹. In the assay with murine CCL20 [4], this molecule showed a Kd of 2.8 nM. Moreover, the binding result with murine CCL20 [5] is recorded as “binds”.

B4: AB1 anti-muCCL20 monoclonal antibody (antibody, V domains shown)
VH: B1 VH with A27S, A103N
VL: B1 VL with A35K
notes: VH of AB1; VL of AB1; IgG1 (in-house mammalian expression vector); hybridoma derived; also called WT AB1; parental AB1; source: HEK293FT, transiently transfected, purified from supernatant (Protein A)
In the case of B4, the binding result (with murine CCL20 [6]; in assay [2]) was “binds” each time.

B5: AB1-C16 Fab fragment (L:G35Y) (Fab, V domains shown)
VH: B1 VH with A27S, A103N
VL: B1 VL with G34Y, A35K
notes: IMGT numbering; Fab of m43; source: papain cleavage of the purified antibody; purified by anion and cation exchange chromatography
In the assay with murine CCL20 [3], B5 had a koff of 0.007 s⁻¹. The same molecule showed a Kd with murine CCL20 [4] of 8.4 nM. The binding result in the assay with murine CCL20 [5] is “binds”.

B6: AB1-C1 Fab fragment (H:S28R) (Fab, V domains shown)
VH: B1 VH with A27R, A103N
VL: B1 VL with A35K
notes: IMGT numbering; Fab of m28; also called Clone AB1-C1; source: papain cleavage of the purified antibody; purified by anion and cation exchange chromatography
B6: in the assay with murine CCL20 [3], the dissociation rate constant (koff) came to 0.0029 s⁻¹. In the assay with murine CCL20 [4], this molecule registered a dissociation constant Kd of 2.3 nM. In addition, the “fold improvement in KD against parental AB1” value with murine CCL20 [5] was 4 fold.

B7: AB1-C1 (H:S28R) (antibody, V domains shown)
VH: B1 VH with A27R, A103N
VL: B1 VL with A35K
Take B7: in the assay with murine CCL20 (mouse), the fold decrease in antibody IC50 against parental AB1, CCR6 CHO-K1 β-arrestin assay with 4 nM muCCL20; blocks muCCL20 with muCCR6 was found to be 4 fold.

B8: AB1 Fab fragment (Fab, V domains shown)
VH: B1 VH with A27S, A103N
VL: B1 VL with A35K
notes: Fab of m1; also called parental AB1 (Fab); source: papain cleavage of the purified antibody; purified by anion and cation exchange chromatography
Molecule B8 had a koff in the assay with murine CCL20 [3] of 0.0077 s⁻¹. In addition, in the assay with murine CCL20 [4], the Kd is 9.1 nM. Further, in the assay with murine CCL20 [5], the binding result is given as “binds”.

B9: AB1-C1-16 (H:S28R, L:G35Y) (antibody, V domains shown)
VH: B1 VH with A27R, A103N
VL: B1 VL with G34Y, A35K
notes: IMGT numbering; IgG1, as m1; also called clone 1–16; combination clone; source: HEK293FT, transiently transfected, purified (Protein A)
Regarding B9, the fold decrease in antibody IC50 against parental AB1, CCR6 CHO-K1 β-arrestin assay with 4 nM muCCL20; blocks muCCL20 with muCCR6 in the assay with murine CCL20 (mouse) was found to be 4 fold. Moreover, the binding result in assay [2] is reported as “binds”.
